Results on 1 molecule are retold here after patent US20070117180A1, “Enzyme producing plasma protein fragment having inhibitory activity to metastasis and growth of cancer and plasma protein fragment produced by fragmentation by said enzyme” (priority 1998, published 2007).

The test system of series [1] is bovine aorta endothelial (BAE) cells. The experiment in a line: Test for inhibitory activity to growth of vascular endothelial cells, bovine aorta endothelial cells. Conditions: cell count after 72 hours, plasminogen fragments. The format is cell-based. Details: dose or concentration left out as unconfirmed. How it is done: The activity of the plasminogen fragments was also estimated as described by O'Reilly et al. using bovine aorta endothelial (BAE) cells purchased from Sanko Jun-yaku K.K. BAE cells were cultured for maintenance on a 24-well plate (manufactured by Iwaki Glass K.K.) coated with gelatin in a DMEM basal medium containing 10% fetal calf serum (FCS), 3 ng/ml basic FGF (bFGF), 1% glutamine, 1% penicillin and 1% streptomycin at 5% CO2. BAE cells were plated on a 24-well gelatin-coated plate at 12,500 cells/well and cultured on the basal medium deprived of bFGF for 24 hours. […] contained 5% FCS but was deprived of bFGF and the plasminogen fragments were reacted with the cells at 37° C. for 20 minutes. A physiological saline was used as a negative control whereas angiostatin (Angiostatin, manufactured by Technoclone) was used as a positive control. After reaction, the basal medium containing 5% FCS and 2 ng/ml bFGF was added and the cells were cultured at 37° C. for additional 72 hours. The cells were peeled off the well with trypsin/EDTA solution and counted with Coulter counter (manufactured by Coulter).

On the set-up of series [2]: species or system mice. The following applies: mouse, in vivo, iv.
A further series relates to Lung cancer cells (LL/2). Briefly: Test for inhibitory activity to metastasis and growth of cancer (number of nodes on the lung surface). The format is in vivo, mice. As for the experimental part:
The protein fragments prepared as described above were dissolved in a physiological saline and used as a sample for animal tests. As a system for estimating an inhibitory effect to growth of metastasized cancerous focus, cancer capable of metastasis and growth was transplanted to mice where distally metastasized cancerous focus was observed. Lung cancer cells (LL/2; Dainippon Seiyaku K.K.) were subcutaneously transplanted to mice at the back. The animals were bred until a primary cancerous focus grows up to a predetermined size and the primary focus was then removed surgically. The sample was administered to mice intraperitoneally at 1 mg/mouse/day for 10 days. […]
After completion of each test, mice were dissected. The number of nodes on the lung surface, in case of test for inhibitory activity to metastasis and growth of cancer, or a weight of the lung, for test for inhibitory activity to growth of metastasized cancerous focus, was measured respectively and compared with control groups (Mann Whetney U test). […] In test for inhibitory activity to growth of metastasized cancerous focus, the lung was measured 0.44±0.28 g (n=6) for the control group while it was measured 0.23±0.08 g (n=6) for the group administered with the plasminogen fragment.

For series [3], the system named is Lewis lung cancer cells (LL/2). Briefly: Test for inhibitory activity to growth of metastasized cancerous focus (weight of the lung). The class given is in vivo, C57B1 mice. The following applies: n=6, control 0.44±0.28. As for the experimental part:
The protein fragments prepared as described above were dissolved in a physiological saline and used as a sample for animal tests. As a system for estimating an inhibitory effect to growth of metastasized cancerous focus, cancer capable of metastasis and growth was transplanted to mice where distally metastasized cancerous focus was observed. Lung cancer cells (LL/2; Dainippon Seiyaku K.K.) were subcutaneously transplanted to mice at the back. The animals were bred until a primary cancerous focus grows up to a predetermined size and the primary focus was then removed surgically. […] As a control, mice were administered with a physiological saline alone as used for dissolving the lyophilized sample (test for inhibitory activity to growth of metastasized cancerous focus).
After completion of each test, mice were dissected. The number of nodes on the lung surface, in case of test for inhibitory activity to metastasis and growth of cancer, or a weight of the lung, for test for inhibitory activity to growth of metastasized cancerous focus, was measured respectively and compared with control groups (Mann Whetney U test). […] In test for inhibitory activity to growth of metastasized cancerous focus, the lung was measured 0.44±0.28 g (n=6) for the control group while it was measured 0.23±0.08 g (n=6) for the group administered with the plasminogen fragment. […]

A short description of series [4]: General pharmacological test, effects on the respiratory and circulatory organs. The class given is in vivo. Conditions: Beagle dog.

B1: plasminogen fragments: plasminogen fragments comprising Kringles 1 to 4 produced by cleavage of plasminogen with PACE4 (protein)
chain: VIMAENRKSSIIIRMRDVVLFEKKVYLSECKTGNGKNYRGTMSKTKNGITCQKWSSTSPHRPRFSPATHPSEGLEENYCRNPDNDPQGPWCYTTDPEKRYDYCDILECEEECMHCSGENYDGKISKTMSGLECQAWDSQSPHAHGYIPSKFPNKNLKKNYCRNPDRELRPWCFTTDPNKRWELCDIPRCTTPPPSSGPTYQCLKGTGENYRGNVAVTVSGHTCQHWSAQTPHTHNRTPENFPCKNLDENYCRNPDGKRAPWCHTTNSQVRWEYCKIPSCDSSPVSTEQLAPTAPPELTPVVQDCYHGDGQSYRGTSSTTTTGKKCQSWSSMTPHRHQKTPENYPNAGLTMNYCRNPDADKGPWCFTTDPSVRWEYCNL
Turning to B1, the “inhibitory activity to growth of the vascular endothelial cells” value in series [1] is given as “no inhibitory activity”; in series [1] (listed as plasminogen fragment) it was “inhibitory effects to its growth have not been obtained”. Further, the “safety in single-dose toxicity test” value in series [2] was “confirmed for their safety”. Besides, in the series on Lung cancer cells (LL/2) (1 mg/mouse/day intraperitoneally for 10 days after removal of primary focus, n=6, control 6.3±0.2), the number of nodes representing metastasis and growth of cancer amounted to 2.1 ± 0.8. Further, in the series with Lung cancer cells (LL/2) (mouse model in which Lewis lung cancer was transplanted), the “inhibitory activity to metastasis and growth of cancer cells” value is “had an inhibitory activity to metastasis and growth of cancer cells”. Further, the “weight of the lung” value amounted to 0.23 ± 0.08 g in series [3] (25 μg/animal intraperitoneally for 10 days, dissected Day 11) and 0.23 ± 0.08 g in series [3] (1 mg/mouse/day intraperitoneally for 10 days). Also, in series [4], the “safety in general pharmacological test (respiratory and circulatory organs)” value is “confirmed for their safety”.
